Patent US20110118131A1 (published 2011)

T1: Ep-CAM (UniProt P16422 24-265, limits assumed)
T1 construct: Amine coupled to a CM5 chip in the Biacore assays
T1 sequence (looked up): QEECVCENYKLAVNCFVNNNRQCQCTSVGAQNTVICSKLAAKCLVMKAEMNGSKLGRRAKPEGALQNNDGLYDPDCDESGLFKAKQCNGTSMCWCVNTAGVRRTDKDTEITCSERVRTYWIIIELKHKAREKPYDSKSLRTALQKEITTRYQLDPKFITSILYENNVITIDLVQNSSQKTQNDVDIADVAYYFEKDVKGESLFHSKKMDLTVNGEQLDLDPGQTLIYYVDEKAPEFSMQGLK


These binders were tested against T1, Ep-CAM (assay: Biacore, Fab periplasmic extract).

| binding result | fold difference in affinity vs parental ING-1 | Binder |
| --- | --- | --- |
| no binding |  | ING-1 light chain Y54N (Fab, V domains shown, Fab, periplasmic extract) VH: QIQLVQSGPELKKPGETVKISCKASGYTFTKYGMNWVKQAPGKGLKWMGWINTYTEEPTYGDDFKGRFAFSLETSASTANLQINNLKSEDTATYFCARFGSAVDYWGQGTSVTVSS VL: DIVMTQAAFSNPVTLGTSGSISCRSSKSLLHSNGITYLYWYLQKPGQSPQLLINQMSNLASGVPDRFSSSGSGTDFTLRISRVEAEDVGVYYCAQNLELPRTFGGGTKLEMKR |
| no binding |  | ING-1 light chain Y54R (Fab, V domains shown, Fab, periplasmic extract) VH: QIQLVQSGPELKKPGETVKISCKASGYTFTKYGMNWVKQAPGKGLKWMGWINTYTEEPTYGDDFKGRFAFSLETSASTANLQINNLKSEDTATYFCARFGSAVDYWGQGTSVTVSS VL: DIVMTQAAFSNPVTLGTSGSISCRSSKSLLHSNGITYLYWYLQKPGQSPQLLIRQMSNLASGVPDRFSSSGSGTDFTLRISRVEAEDVGVYYCAQNLELPRTFGGGTKLEMKR |
|  | 0.9 fold | ING-1 light chain Y54S (Fab, V domains shown, Fab, periplasmic extract) VH: QIQLVQSGPELKKPGETVKISCKASGYTFTKYGMNWVKQAPGKGLKWMGWINTYTEEPTYGDDFKGRFAFSLETSASTANLQINNLKSEDTATYFCARFGSAVDYWGQGTSVTVSS VL: DIVMTQAAFSNPVTLGTSGSISCRSSKSLLHSNGITYLYWYLQKPGQSPQLLISQMSNLASGVPDRFSSSGSGTDFTLRISRVEAEDVGVYYCAQNLELPRTFGGGTKLEMKR |

Each binder was assayed against IL-1β (UniProt P01584 117-269) (assay: Biacore, Fab periplasmic extract on IL-1β).

| fold difference in affinity vs original | binding result | Binder |
| --- | --- | --- |
|  | no binding | XPA23 light chain A91P (Fab, V domains shown, Single light chain substitution; Fab in periplasmic extract; also called C5A (XPA23) A91P) VH: EVQLLESGGGLVQPGGSLRLSCAASGFTFSKYFMFWVRQAPGKGLEWVSVISPSGGMTRYADSVKGRFTISRDNSKNTLYLQMNSLRAEDTAVYYCARVGYGGNSDYWGQGTLVTVSS VL: DIQMTQSPSSVSASVGDRLTIICRASQDINRWLAWYQQTPGNAPKLLIHSATSLQSGVPSRFSGSGSGTDFTLTINSLQPEDFATYYCQQPDSFPLTFGGGTKVEIK |
| 0.26 fold |  | XPA23 light chain D92G (Fab, V domains shown, Single light chain substitution; Fab in periplasmic extract; also called C5A (XPA23) D92G) VH: EVQLLESGGGLVQPGGSLRLSCAASGFTFSKYFMFWVRQAPGKGLEWVSVISPSGGMTRYADSVKGRFTISRDNSKNTLYLQMNSLRAEDTAVYYCARVGYGGNSDYWGQGTLVTVSS VL: DIQMTQSPSSVSASVGDRLTIICRASQDINRWLAWYQQTPGNAPKLLIHSATSLQSGVPSRFSGSGSGTDFTLTINSLQPEDFATYYCQQAGSFPLTFGGGTKVEIK |
| 0.67 fold |  | XPA23 light chain A91T (Fab, V domains shown, Single light chain substitution; Fab in periplasmic extract; also called C5A (XPA23) A91T) VH: EVQLLESGGGLVQPGGSLRLSCAASGFTFSKYFMFWVRQAPGKGLEWVSVISPSGGMTRYADSVKGRFTISRDNSKNTLYLQMNSLRAEDTAVYYCARVGYGGNSDYWGQGTLVTVSS VL: DIQMTQSPSSVSASVGDRLTIICRASQDINRWLAWYQQTPGNAPKLLIHSATSLQSGVPSRFSGSGSGTDFTLTINSLQPEDFATYYCQQTDSFPLTFGGGTKVEIK |
| 0.51 fold |  | XPA23 light chain A91V (Fab, V domains shown, Single light chain substitution; Fab in periplasmic extract; also called C5A (XPA23) A91V) VH: EVQLLESGGGLVQPGGSLRLSCAASGFTFSKYFMFWVRQAPGKGLEWVSVISPSGGMTRYADSVKGRFTISRDNSKNTLYLQMNSLRAEDTAVYYCARVGYGGNSDYWGQGTLVTVSS VL: DIQMTQSPSSVSASVGDRLTIICRASQDINRWLAWYQQTPGNAPKLLIHSATSLQSGVPSRFSGSGSGTDFTLTINSLQPEDFATYYCQQVDSFPLTFGGGTKVEIK |
| 0.88 fold |  | XPA23 light chain F94I (Fab, V domains shown, Single light chain substitution; Fab in periplasmic extract; also called C5A (XPA23) F94I) VH: EVQLLESGGGLVQPGGSLRLSCAASGFTFSKYFMFWVRQAPGKGLEWVSVISPSGGMTRYADSVKGRFTISRDNSKNTLYLQMNSLRAEDTAVYYCARVGYGGNSDYWGQGTLVTVSS VL: DIQMTQSPSSVSASVGDRLTIICRASQDINRWLAWYQQTPGNAPKLLIHSATSLQSGVPSRFSGSGSGTDFTLTINSLQPEDFATYYCQQADSIPLTFGGGTKVEIK |
|  | no binding | XPA23 light chain F94G (Fab, V domains shown, Single light chain substitution; Fab in periplasmic extract; also called C5A (XPA23) F94G) VH: EVQLLESGGGLVQPGGSLRLSCAASGFTFSKYFMFWVRQAPGKGLEWVSVISPSGGMTRYADSVKGRFTISRDNSKNTLYLQMNSLRAEDTAVYYCARVGYGGNSDYWGQGTLVTVSS VL: DIQMTQSPSSVSASVGDRLTIICRASQDINRWLAWYQQTPGNAPKLLIHSATSLQSGVPSRFSGSGSGTDFTLTINSLQPEDFATYYCQQADSGPLTFGGGTKVEIK |

Continued, binder first:

| Binder | fold difference in affinity vs original | binding result |
| --- | --- | --- |
| XPA23 light chain S53T (Fab, V domains shown, Single light chain substitution; Fab in periplasmic extract; also called C5A (XPA23) S53T) VH: EVQLLESGGGLVQPGGSLRLSCAASGFTFSKYFMFWVRQAPGKGLEWVSVISPSGGMTRYADSVKGRFTISRDNSKNTLYLQMNSLRAEDTAVYYCARVGYGGNSDYWGQGTLVTVSS VL: DIQMTQSPSSVSASVGDRLTIICRASQDINRWLAWYQQTPGNAPKLLIHSATTLQSGVPSRFSGSGSGTDFTLTINSLQPEDFATYYCQQADSFPLTFGGGTKVEIK | 0.95 fold |  |
| XPA23 light chain D92A (Fab, V domains shown, Single light chain substitution; Fab in periplasmic extract; also called C5A (XPA23) D92A) VH: EVQLLESGGGLVQPGGSLRLSCAASGFTFSKYFMFWVRQAPGKGLEWVSVISPSGGMTRYADSVKGRFTISRDNSKNTLYLQMNSLRAEDTAVYYCARVGYGGNSDYWGQGTLVTVSS VL: DIQMTQSPSSVSASVGDRLTIICRASQDINRWLAWYQQTPGNAPKLLIHSATSLQSGVPSRFSGSGSGTDFTLTINSLQPEDFATYYCQQAASFPLTFGGGTKVEIK | 0.4 fold |  |
| XPA23 light chain D92T (Fab, V domains shown, Single light chain substitution; Fab in periplasmic extract; also called C5A (XPA23) D92T) VH: EVQLLESGGGLVQPGGSLRLSCAASGFTFSKYFMFWVRQAPGKGLEWVSVISPSGGMTRYADSVKGRFTISRDNSKNTLYLQMNSLRAEDTAVYYCARVGYGGNSDYWGQGTLVTVSS VL: DIQMTQSPSSVSASVGDRLTIICRASQDINRWLAWYQQTPGNAPKLLIHSATSLQSGVPSRFSGSGSGTDFTLTINSLQPEDFATYYCQQATSFPLTFGGGTKVEIK | 0.34 fold |  |
| XPA23 light chain A91L (Fab, V domains shown, Single light chain substitution; Fab in periplasmic extract; also called C5A (XPA23) A91L) VH: EVQLLESGGGLVQPGGSLRLSCAASGFTFSKYFMFWVRQAPGKGLEWVSVISPSGGMTRYADSVKGRFTISRDNSKNTLYLQMNSLRAEDTAVYYCARVGYGGNSDYWGQGTLVTVSS VL: DIQMTQSPSSVSASVGDRLTIICRASQDINRWLAWYQQTPGNAPKLLIHSATSLQSGVPSRFSGSGSGTDFTLTINSLQPEDFATYYCQQLDSFPLTFGGGTKVEIK | 0.39 fold |  |
| XPA23 light chain D92V (Fab, V domains shown, Single light chain substitution; Fab in periplasmic extract; also called C5A (XPA23) D92V) VH: EVQLLESGGGLVQPGGSLRLSCAASGFTFSKYFMFWVRQAPGKGLEWVSVISPSGGMTRYADSVKGRFTISRDNSKNTLYLQMNSLRAEDTAVYYCARVGYGGNSDYWGQGTLVTVSS VL: DIQMTQSPSSVSASVGDRLTIICRASQDINRWLAWYQQTPGNAPKLLIHSATSLQSGVPSRFSGSGSGTDFTLTINSLQPEDFATYYCQQAVSFPLTFGGGTKVEIK |  | no binding |
| XPA23 light chain D92L (Fab, V domains shown, Single light chain substitution; Fab in periplasmic extract; also called C5A (XPA23) D92L) VH: EVQLLESGGGLVQPGGSLRLSCAASGFTFSKYFMFWVRQAPGKGLEWVSVISPSGGMTRYADSVKGRFTISRDNSKNTLYLQMNSLRAEDTAVYYCARVGYGGNSDYWGQGTLVTVSS VL: DIQMTQSPSSVSASVGDRLTIICRASQDINRWLAWYQQTPGNAPKLLIHSATSLQSGVPSRFSGSGSGTDFTLTINSLQPEDFATYYCQQALSFPLTFGGGTKVEIK | 0.14 fold |  |
| XPA23 light chain F94A (Fab, V domains shown, Single light chain substitution; Fab in periplasmic extract; also called C5A (XPA23) F94A) VH: EVQLLESGGGLVQPGGSLRLSCAASGFTFSKYFMFWVRQAPGKGLEWVSVISPSGGMTRYADSVKGRFTISRDNSKNTLYLQMNSLRAEDTAVYYCARVGYGGNSDYWGQGTLVTVSS VL: DIQMTQSPSSVSASVGDRLTIICRASQDINRWLAWYQQTPGNAPKLLIHSATSLQSGVPSRFSGSGSGTDFTLTINSLQPEDFATYYCQQADSAPLTFGGGTKVEIK |  | no binding |
| XPA23 light chain D92I (Fab, V domains shown, Single light chain substitution; Fab in periplasmic extract; also called C5A (XPA23) D92I) VH: EVQLLESGGGLVQPGGSLRLSCAASGFTFSKYFMFWVRQAPGKGLEWVSVISPSGGMTRYADSVKGRFTISRDNSKNTLYLQMNSLRAEDTAVYYCARVGYGGNSDYWGQGTLVTVSS VL: DIQMTQSPSSVSASVGDRLTIICRASQDINRWLAWYQQTPGNAPKLLIHSATSLQSGVPSRFSGSGSGTDFTLTINSLQPEDFATYYCQQAISFPLTFGGGTKVEIK | 0.33 fold |  |
| XPA23 light chain D92P (Fab, V domains shown, Single light chain substitution; Fab in periplasmic extract; also called C5A (XPA23) D92P) VH: EVQLLESGGGLVQPGGSLRLSCAASGFTFSKYFMFWVRQAPGKGLEWVSVISPSGGMTRYADSVKGRFTISRDNSKNTLYLQMNSLRAEDTAVYYCARVGYGGNSDYWGQGTLVTVSS VL: DIQMTQSPSSVSASVGDRLTIICRASQDINRWLAWYQQTPGNAPKLLIHSATSLQSGVPSRFSGSGSGTDFTLTINSLQPEDFATYYCQQAPSFPLTFGGGTKVEIK |  | no binding |
| XPA23 light chain A91G (Fab, V domains shown, Single light chain substitution; Fab in periplasmic extract; also called C5A (XPA23) A91G) VH: EVQLLESGGGLVQPGGSLRLSCAASGFTFSKYFMFWVRQAPGKGLEWVSVISPSGGMTRYADSVKGRFTISRDNSKNTLYLQMNSLRAEDTAVYYCARVGYGGNSDYWGQGTLVTVSS VL: DIQMTQSPSSVSASVGDRLTIICRASQDINRWLAWYQQTPGNAPKLLIHSATSLQSGVPSRFSGSGSGTDFTLTINSLQPEDFATYYCQQGDSFPLTFGGGTKVEIK |  | no binding |
| XPA23 light chain A91I (Fab, V domains shown, Single light chain substitution; Fab in periplasmic extract; also called C5A (XPA23) A91I) VH: EVQLLESGGGLVQPGGSLRLSCAASGFTFSKYFMFWVRQAPGKGLEWVSVISPSGGMTRYADSVKGRFTISRDNSKNTLYLQMNSLRAEDTAVYYCARVGYGGNSDYWGQGTLVTVSS VL: DIQMTQSPSSVSASVGDRLTIICRASQDINRWLAWYQQTPGNAPKLLIHSATSLQSGVPSRFSGSGSGTDFTLTINSLQPEDFATYYCQQIDSFPLTFGGGTKVEIK |  | no binding |
